Test results taken from PMC2137388.

Molecular target: L chains of normal human 7S γ-globulin (human)
Test: AUC

- per cent of the material at the molecular weight of the dimer: 84 per cent
Substance: L chains of normal human 7S γ-globulin (natural protein)
